Data on two variants can be found in IntAct's records for PubMed 17717528.

To fix the notation:
B1: Circadian clock oscillator protein KaiC (Thermosynechococcus elongatus (strain BP-1)), Q79V60 (parent)
chain: MTNLPEHQSSPTEQSSAEVKKIPTMIEGFDDISHGGLPQGRTTLVSGTSGTGKTLFAVQFLYNGITIFNEPGIFVTFEESPQDIIKNALSFGWNLQSLIDQGKLFILDASPDPDGQEVAGDFDLSALIERIQYAIRKYKATRVSIDSVTAVFQQYDAASVVRREIFRLAFRLKQLGVTTIMTTERVDEYGPVARFGVEEFVSDNVVILRNVLEGERRRRTVEILKLRGTTHMKGEYPFTINNGINIFPLGAMRLTQRSSNVRVSSGVKTLDEMCGGGFFKDSIILATGATGTGKTLLVSKFLETGCQQGERALLFAYEESRAQLSRNASSWGIDFEELERRGLLRIICAYPESAGLEDHLQIIKSEIADFKPSRVAIDSLSALARGVSNNAFRQFVIGVTGFAKQEEITGFFTNTTDQFMGSNSITESHISTITDTILLLQYVEIRGEMSRAINVFKMRGSWHDKGIREYVITEKGAEIRDSFRNFEGIISGTPTRISVDEKTELARIAKGMQDLESE
partner: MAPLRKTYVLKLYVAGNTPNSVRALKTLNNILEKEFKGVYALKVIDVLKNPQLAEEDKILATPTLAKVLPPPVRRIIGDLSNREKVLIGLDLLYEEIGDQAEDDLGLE
B2: Circadian clock oscillator protein KaiC (Thermosynechococcus elongatus (strain BP-1)), Q79V60 (parent)
chain: B1 chain
partner: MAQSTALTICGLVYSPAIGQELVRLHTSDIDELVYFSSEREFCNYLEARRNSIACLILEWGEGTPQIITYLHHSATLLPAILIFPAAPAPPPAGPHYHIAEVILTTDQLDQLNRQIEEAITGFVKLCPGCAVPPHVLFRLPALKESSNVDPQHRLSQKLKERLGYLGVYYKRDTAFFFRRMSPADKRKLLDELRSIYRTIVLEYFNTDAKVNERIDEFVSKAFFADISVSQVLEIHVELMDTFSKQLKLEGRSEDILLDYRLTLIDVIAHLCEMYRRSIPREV

The variants in the first assay derive from B1. The note with it: with kaib_thevb kaiB.
T432A: the “effect of a mutation on the interaction” value is on record as “disrupting interaction”.

Variants of B2 are the subject of a further assay. The following applies: with kaia_thevb kaiA.
Consider T432A, for which the “effect of a mutation on the interaction” value is on record as “decreasing interaction”.
